One assay addresses HLA-C*07:02. Briefly: IEDB peptide-MHC binding, purified MHC/direct/fluorescence; filed as Kd, often an IC50 or EC50 that approximates it; ≥ and ≤ were set here for values at or beyond the usual limits of such assays.
In a further assay the target is HLA-A*32:07. Briefly: IEDB peptide-MHC binding, purified MHC/competitive/fluorescence; filed as Kd, often an IC50 or EC50 that approximates it; ≥ and ≤ were set here for values at or beyond the usual limits of such assays.
Another assay deals with HLA-B*15:42. The description is as above.
Another assay deals with HLA-B*27:20. The description is as above.
The next assay concerns the target HLA-B*45:06. Described as above.
The next assay deals with HLA-B*83:01. Described as above.
For assay [1], the target named is HLA-A*02:01. Briefly: IEDB peptide-MHC binding, purified MHC/direct/fluorescence; filed as Kd, often an IC50 or EC50 that approximates it; ≥ and ≤ were set here for values at or beyond the usual limits of such assays. The following applies: source organism: Cowpox virus.
In another assay the target is HLA-A*26:03. The assay is described as above.
The target of assay [2] is HLA-A*68:02. The assay is described as above. Particulars: source organism: Cowpox virus.
In the next assay the target is HLA-A*69:01. The assay is described as above.
The target in another assay is HLA-B*07:02. The assay is described as above.
The next assay has as its target HLA-B*08:03. The assay is described as above.
In a further assay the target is HLA-B*15:01. The assay is described as above. The following applies: source organism: Cowpox virus.
A further assay addresses HLA-B*15:09. Described as above. Particulars: source organism: Variola virus.
A further assay has as its target HLA-B*15:17. Described as above.
In a further assay the target is HLA-B*38:01. Described as above. The following applies: source organism: Variola virus.
The next assay concerns the target HLA-B*39:01. The description is as above. The following applies: source organism: Cowpox virus.
For a further assay, the target named is HLA-B*40:01. The assay is described as above.
Another assay concerns the target HLA-B*46:01. Described as above. The following applies: source organism: Cowpox virus.
A further assay deals with HLA-B*57:01. The assay is described as above.
A further assay deals with HLA-B*58:01. Described as above.
Assay [3] deals with HLA-A*01:01. Kind of assay: IEDB peptide-MHC binding, purified MHC/competitive/fluorescence; filed as Kd, often an IC50 or EC50 that approximates it; ≥ and ≤ were set here for values at or beyond the usual limits of such assays. Particulars: source organism: Vaccinia virus Copenhagen.
For the next assay, the target named is HLA-A*30:01. Described as above.
A further assay concerns the target HLA-B*18:01. The description is as above. Particulars: source organism: Vaccinia virus Copenhagen.
Assay [4] has as its target HLA-B*27:05. The description is as above. Particulars: source organism: Vaccinia virus Copenhagen.
Assay [5] concerns the target HLA-B*48:01. The assay is described as above. The following applies: source organism: Vaccinia virus Copenhagen.
The target of assay [6] is HLA-A*01:01. Briefly: IEDB peptide-MHC binding, purified MHC/direct/fluorescence; filed as Kd, often an IC50 or EC50 that approximates it; ≥ and ≤ were set here for values at or beyond the usual limits of such assays. The following applies: source organism: Bacillus anthracis.
In the next assay the target is HLA-A*26:02. Described as above. Particulars: source organism: Bacillus cereus NVH0597-99.
For a further assay, the target named is HLA-B*08:02. The assay is described as above. The following applies: source organism: Bacillus cereus NVH0597-99.
For assay [7], the target named is HLA-B*27:05. The assay is described as above. The following applies: source organism: Bacillus anthracis.
Assay [8] has as its target HLA-B*48:01. The description is as above. Particulars: source organism: Bacillus anthracis.
Assay [9] deals with HLA-A*02:01. Kind of assay: IEDB peptide-MHC binding, purified MHC/competitive/fluorescence; filed as Kd, often an IC50 or EC50 that approximates it; ≥ and ≤ were set here for values at or beyond the usual limits of such assays.
In a further assay the target is HLA-A*11:01. The description is as above. Particulars: source organism: Bacillus anthracis str. A0488.
The target in the next assay is HLA-A*31:01. The assay is described as above. The following applies: source organism: Bacillus anthracis str. A0488.
Assay [10] deals with HLA-A*68:02. Described as above. The following applies: source organism: Bacillus anthracis str. A0488.
The target of another assay is HLA-C*05:01. Briefly: IEDB peptide-MHC binding, purified MHC/direct/fluorescence; filed as Kd, often an IC50 or EC50 that approximates it; ≥ and ≤ were set here for values at or beyond the usual limits of such assays. The following applies: source organism: Yersinia pestis CO92.
Another assay deals with HLA-C*06:02. The assay is described as above. The following applies: source organism: Yersinia pestis CO92.
A further assay concerns the target HLA-C*15:02. Described as above. The following applies: source organism: Yersinia pestis CO92.
The target of another assay is HLA-B*51:01. Briefly: IEDB peptide-MHC binding, purified MHC/competitive/fluorescence; filed as Kd, often an IC50 or EC50 that approximates it; ≥ and ≤ were set here for values at or beyond the usual limits of such assays. Particulars: source organism: Yersinia pestis CO92.
The target in the next assay is HLA-C*14:02. Described as above. Particulars: source organism: Yersinia pestis CO92.
The mark [11] stands for this setting: source organism: Mycobacterium tuberculosis C.
Setting [12] is: source organism: Bacillus cereus NVH0597-99.
The mark [13] stands for this setting: source organism: Bacillus anthracis.
The mark [14] stands for this setting: source organism: Bacillus anthracis str. A0488.
Setting [15] is: source organism: Yersinia pestis CO92.

RARRHLAAL: the dissociation constant (Kd) – broadly, the constant that tells how readily two partners part at equilibrium – in the assay with HLA-C*07:02 (setting [11]) is 1.34 µM; with HLA-A*32:07 (setting [11]), 0.114 µM; with HLA-B*15:42 (setting [11]) it was no less than 5 µM; in the assay with HLA-B*27:20 (setting [11]), 0.0074 µM; with HLA-B*45:06 (setting [11]), no less than 5 µM; in the assay with HLA-B*83:01 (setting [11]), 5 µM.

Take RHDITGFIL: the dissociation constant Kd with HLA-A*02:01 [1], in the assay with HLA-A*26:03 (source organism: Variola virus), with HLA-A*68:02 [2], in the assay with HLA-A*69:01 (source organism: Cowpox virus), with HLA-B*07:02 (source organism: Cowpox virus) and with HLA-B*08:03 (source organism: Variola virus) was no less than 20 µM throughout. The Kd with HLA-B*15:01 is no less than 20 µM; in the assay with HLA-B*15:09 it was 2.78 µM; with HLA-B*15:17 (source organism: Cowpox virus), no less than 20 µM; with HLA-B*38:01, 0.033 µM; with HLA-B*39:01 it was 0.0235 µM; in the assay with HLA-B*40:01 (source organism: Cowpox virus), 0.513 µM. Besides, the Kd in the assay with HLA-B*46:01, in the assay with HLA-B*57:01 (source organism: Cowpox virus), with HLA-B*58:01 (source organism: Cowpox virus), with HLA-A*01:01 [3], in the assay with HLA-A*30:01 (source organism: Vaccinia virus Copenhagen) and with HLA-B*18:01 was no less than 20 µM each time. The Kd with HLA-B*27:05 [4] is no less than 20 µM; with HLA-B*48:01 [5], 0.298 µM.

Regarding REFEAQNVP, the Kd with HLA-A*01:01 [6], with HLA-A*26:02, with HLA-A*26:03 (setting [12]), with HLA-A*69:01 (setting [13]), with HLA-B*07:02 (setting [13]) and with HLA-B*08:02 was no less than 20 µM in each case. Further, the Kd with HLA-B*08:03 (setting [12]) is no less than 20 µM; with HLA-B*15:17 (setting [13]) it was no less than 20 µM; with HLA-B*27:05 [7], no less than 20 µM; in the assay with HLA-B*40:01 (setting [13]), 0.294 µM; in the assay with HLA-B*48:01 [8] it was no less than 20 µM; with HLA-B*57:01 (setting [13]) it was no less than 20 µM. For the same sequence, the Kd is no less than 20 µM with HLA-B*58:01 (setting [13]); 0.145 µM in the assay with HLA-A*02:01 [9] (setting [14]); 0.497 µM in the assay with HLA-A*11:01; 0.521 µM with HLA-A*30:01 (setting [14]); no less than 20 µM with HLA-A*31:01; 2.19 µM with HLA-A*68:02 [10].

As to YQLEMYHPI, the Kd with HLA-C*05:01 is no less than 20 µM; with HLA-C*06:02 it was no less than 20 µM; with HLA-C*07:02 (setting [15]), 3.75 µM; with HLA-C*15:02 it was no less than 20 µM; with HLA-A*02:01 [9] (setting [15]), 0.0002 µM; with HLA-A*32:07 (setting [15]), 0.0013 µM. For the same sequence, the Kd was 15.2 µM with HLA-B*15:42 (setting [15]); 0.0008 µM with HLA-B*27:20 (setting [15]); 3.21 µM with HLA-B*45:06 (setting [15]); no less than 20 µM with HLA-B*51:01; no less than 5 µM in the assay with HLA-B*83:01 (setting [15]); 0.0709 µM with HLA-C*14:02.

For the origin of these results see the Immune Epitope Database (IEDB).
